We go through three molecules from article PMC2928392 (Pharmacogenetics and Genomics, 2009).

In data set [1] the target is T1, UDP-glucuronosyltransferase 2A3 (UGT2A3) (Homo sapiens, UniProt Q6UWM9).
T1 sequence (Q6UWM9 24-527): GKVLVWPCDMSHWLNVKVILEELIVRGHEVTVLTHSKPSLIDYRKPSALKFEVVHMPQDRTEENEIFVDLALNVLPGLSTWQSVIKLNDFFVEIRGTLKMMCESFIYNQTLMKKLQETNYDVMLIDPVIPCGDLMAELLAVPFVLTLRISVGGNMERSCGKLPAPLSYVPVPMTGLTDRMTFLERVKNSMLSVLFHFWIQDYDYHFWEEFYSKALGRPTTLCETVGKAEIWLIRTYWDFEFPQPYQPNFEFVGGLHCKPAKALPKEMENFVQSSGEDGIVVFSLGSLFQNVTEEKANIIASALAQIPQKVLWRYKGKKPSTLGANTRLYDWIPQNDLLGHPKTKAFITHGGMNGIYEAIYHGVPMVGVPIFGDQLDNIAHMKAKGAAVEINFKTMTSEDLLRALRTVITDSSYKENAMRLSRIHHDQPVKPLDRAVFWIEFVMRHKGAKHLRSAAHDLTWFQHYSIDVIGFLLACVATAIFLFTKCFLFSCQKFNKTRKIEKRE
Description: glucuronidation rate at […], radiochemical HPLC. Type of data set: cell-based.

Substrate in data set [2]: O=C(O)[C@H]1O[C@H](OP(=O)(O)OP(=O)(O)OC[C@H]2O[C@@H](n3ccc(=O)[nH]c3=O)[C@H](O)[C@@H]2O)[C@H](O)[C@@H](O)[C@@H]1O
Description: cells, lysate or membranes. The note with it: MgCl2 ([…]) co-substrate.

Substrate in data set [3]: Cc1cc(=O)oc2cc(O)ccc12
Kind of data set: glucuronidation kinetics. Type of data set: cell-based, Homo sapiens. The settings on record: UDP-glucuronic acid; MgCl2 ([…]).

Substrate in data set [4]: O=[N+]([O-])c1ccc(O)cc1
Description: glucuronidation kinetics. Type of data set: cell-based, Homo sapiens. The settings on record: UDP-glucuronic acid; MgCl2 ([…]).

Substrate in data set [5]: Oc1ccc(-c2ccccc2)cc1
Kind of data set: glucuronidation kinetics. It is filed as cell-based, Homo sapiens. The settings on record: UDP-glucuronic acid; MgCl2 ([…]).

Regarding `C[C@H](CCC(=O)O)[C@H]1CC[C@H]2[C@@H]3C[C@H](O)[C@@H]4C[C@H](O)CC[C@]4(C)[C@H]3CC[C@]12C` [HDCA, hyodeoxycholic acid], in data set [1], the “glucuronidation rate at 200 μM, radiochemical HPLC (4.9 pmol/min/mg)” value is on record as “UGT2A3 exhibited glucuronidating activity only towards HDCA”.

B1: UDP-glucuronosyltransferase 2A2 (UGT2A2) (Homo sapiens) (protein)
chain: MVSIRDFTMPKKFVQMLVFNLTLTEVVLSGNVLIWPTDGSHWLNIKIILEELIQRNHNVTVLASSATLFINSNPDSPVNFEVIPVSYKKSNIDSLIEHMIMLWIDHRPTPLTIWAFYKELGKLLDTFFQINIQLCDGVLKNPKLMARLQKGGFDVLVADPVTICGDLVALKLGIPFMYTLRFSPASTVERHCGKIPAPVSYVPAALSELTDQMTFGERIKNTISYSLQDYIFQSYWGEWNSYYSKILGRPTTLCETMGKAEIWLIRTYWDFEFPRPYLPNFEFVGGLHCKPAKPLPKEMEEFIQSSGKNGVVVFSLGSMVKNLTEEKANLIASALAQIPQKVLWRYKGKKPATLGNNTQLFDWIPQNDLLGHPKTKAFITHGGTNGIYEAIYHGVPMVGVPMFADQPDNIAHMKAKGAAVEVNLNTMTSVDLLSALRTVINEPSYKENAMRLSRIHHDQPVKPLDRAVFWIEFVMRHKGAKHLRVAAHDLTWFQYHSLDVIGFLLVCVTTAIFLVIQCCLFSCQKFGKIGKKKKRE
Regarding B1, the Michaelis constant (Km) (commonly the substrate concentration at which the rate is half of its maximum) in data set [2] came out at 55.1 µM; in the data set “glucuronidation kinetics [3]”, 2998 µM; in the data set “glucuronidation kinetics [4]”, 4469 µM; in “glucuronidation kinetics [5]”, 245 µM. In addition, the Vmax (in general, the top rate of the reaction or transport when substrate is in excess) is given as 91.4 ± 3 pmol/min/mg in data set [2], 39 ± 0.9 pmol/min/mg in “glucuronidation kinetics [3]”, 69 ± 3 pmol/min/mg in the data set “glucuronidation kinetics [4]” and 124 ± 2 pmol/min/mg in the data set “glucuronidation kinetics [5]”.

B2: UDP-glucuronosyltransferase 2A1 (UGT2A1) (Homo sapiens) (protein)
chain: GNVLIWPMEGSHWLNVKIIIDELIKKEHNVTVLVASGALFITPTSNPSLTFEIYKVPFGKERIEGVIKDFVLTWLENRPSPSTIWRFYQEMAKVIKDFHMVSQEICDGVLKNQQLMAKLKKSKFEVLVSDPVFPCGDIVALKLGIPFMYSLRFSPASTVEKHCGKVPYPPSYVPAVLSELTDQMSFTDRIRNFISYHLQDYMFETLWKSWDSYYSKALGGLLLCCPGWSAVADLGSLQPLLPGFKRFSRLSLHCSWDYRLPAGRPTTLCETMGKAEIWLIRTYWDFEFPRPYLPNFEFVGGLHCKPAKPLPKVLWRYKGKKPATLGNNTQLFDWIPQNDLLGHPKTKAFITHGGTNGIYEAIYHGVPMVGVPMFADQPDNIAHMKAKGAAVEVNLNTMTSVDLLSALRTVINEPSYKENAMRLSRIHHDQPVKPLDRAVFWIEFVMRHKGAKHLRVAAHDLTWFQYHSLDVIGFLLVCVTTAIFLVIQCCLFSCQKFGKIGKKKKRE
For B2, in data set [2], the Km was determined as 39.5 µM and the Vmax came out at 292 ± 12 pmol/min/mg. In addition, in “glucuronidation kinetics [4]”, the Km was determined as 303 µM and the Vmax is listed as 141 ± 5 pmol/min/mg.
